Reference: the supplement of paper PMC9112550, “Optimization of the antimicrobial peptide Bac7 by deep mutational scanning” (BMC Biology, 2022)
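Note: peptides expressed intracellularly from a pBAD plasmid library in pooled LB shake-flask culture, induced with 0.3% L-arabinose, DNA abundance read by NGS, three biological replicates, DESeq2 with apeglm shrinkage.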

What follows are sequences tested on Escherichia coli TOP10 (assay: shrunken log2 fold change of peptide-encoding DNA abundance (4.5 h post-induction vs induction); higher = less antimicrobial activity (less host growth inhibition)). Details: time post-induction: 4.5 h; library: site-saturation at positions 5, 18, 19, 20.
RRIRHRPPRLPRPRPRPQNHPRP was tested, and the “shrunken log2 fold change” value was -0.922.
For RRIRTRPPRLPRPRPRPGLAPRP, the “shrunken log2 fold change” value was 0.308.
With RRIRCRPPRLPRPRPRPQKRPRP the “shrunken log2 fold change” value was 0.0237.
With RRIRCRPPRLPRPRPRPTRFPRP the “shrunken log2 fold change” value was 0.696.
In the case of RRIRIRPPRLPRPRPRPDGNPRP, the “shrunken log2 fold change” value is reported as -0.0425.
RRIRKRPPRLPRPRPRPVFSPRP was tested, and the “shrunken log2 fold change” value was 0.111.
RRIRIRPPRLPRPRPRPDMYPRP was tested, and the “shrunken log2 fold change” value was -0.173.
In the case of RRIRHRPPRLPRPRPRPPHNPRP, the “shrunken log2 fold change” value is reported as 0.348.
With RRIRRRPPRLPRPRPRPRNHPRP the “shrunken log2 fold change” value was -0.0441.
With RRIRHRPPRLPRPRPRPPTQPRP the “shrunken log2 fold change” value was 0.137.
For RRIRVRPPRLPRPRPRPFQVPRP, the “shrunken log2 fold change” value was -0.0887.
In the case of RRIRVRPPRLPRPRPRPLWQPRP, the “shrunken log2 fold change” value is reported as 2.32.
For RRIRQRPPRLPRPRPRPTRTPRP, the “shrunken log2 fold change” value was 1.65.
In the case of RRIRSRPPRLPRPRPRPARIPRP, the “shrunken log2 fold change” value is reported as 0.0694.
For RRIRLRPPRLPRPRPRPSPPPRP, the “shrunken log2 fold change” value was 0.198.
For RRIRVRPPRLPRPRPRPAYNPRP, the “shrunken log2 fold change” value was -0.394.
For RRIRTRPPRLPRPRPRPRLFPRP, the “shrunken log2 fold change” value was 0.207.
RRIRMRPPRLPRPRPRPNEEPRP was tested, and the “shrunken log2 fold change” value was -0.0651.
For RRIRKRPPRLPRPRPRPPECPRP, the “shrunken log2 fold change” value was 0.0514.
For RRIRARPPRLPRPRPRPAGNPRP, the “shrunken log2 fold change” value was 0.129.
For RRIRMRPPRLPRPRPRPQMQPRP, the “shrunken log2 fold change” value was 0.108.
For RRIRLRPPRLPRPRPRPQRTPRP, the “shrunken log2 fold change” value was 0.43.
RRIRGRPPRLPRPRPRPWNWPRP was tested, and the “shrunken log2 fold change” value was 0.232.
For RRIRARPPRLPRPRPRPDNCPRP, the “shrunken log2 fold change” value was -0.153.
For RRIRERPPRLPRPRPRPEQLPRP, the “shrunken log2 fold change” value was 0.00434.
With RRIRWRPPRLPRPRPRPLPCPRP the “shrunken log2 fold change” value was 0.118.
With RRIRLRPPRLPRPRPRPPFMPRP the “shrunken log2 fold change” value was 0.086.
In the case of RRIRERPPRLPRPRPRPSRNPRP, the “shrunken log2 fold change” value is reported as -0.207.
For RRIRRRPPRLPRPRPRPYCAPRP, the “shrunken log2 fold change” value was -0.0524.
RRIRIRPPRLPRPRPRPEKVPRP was tested, and the “shrunken log2 fold change” value was -0.13.
RRIRERPPRLPRPRPRPSYVPRP was tested, and the “shrunken log2 fold change” value was -0.264.
For RRIRCRPPRLPRPRPRPRYCPRP, the “shrunken log2 fold change” value was -0.654.
RRIRIRPPRLPRPRPRPVYDPRP was tested, and the “shrunken log2 fold change” value was -0.0144.
In the case of RRIRMRPPRLPRPRPRPHHIPRP, the “shrunken log2 fold change” value is reported as -0.165.
For RRIRIRPPRLPRPRPRPASAPRP, the “shrunken log2 fold change” value was 0.613.
For RRIRWRPPRLPRPRPRPVWNPRP, the “shrunken log2 fold change” value was -0.232.
RRIRARPPRLPRPRPRPQVTPRP was tested, and the “shrunken log2 fold change” value was 0.356.
RRIRIRPPRLPRPRPRPMCWPRP was tested, and the “shrunken log2 fold change” value was -0.00326.
In the case of RRIRSRPPRLPRPRPRPDLQPRP, the “shrunken log2 fold change” value is reported as -0.193.
For RRIRMRPPRLPRPRPRPPKEPRP, the “shrunken log2 fold change” value was -0.0231.
In the case of RRIRNRPPRLPRPRPRPFKPPRP, the “shrunken log2 fold change” value is reported as -0.239.
For RRIRKRPPRLPRPRPRPLMEPRP, the “shrunken log2 fold change” value was 0.124.
For RRIRDRPPRLPRPRPRPVCVPRP, the “shrunken log2 fold change” value was 0.514.
In the case of RRIRGRPPRLPRPRPRPSQCPRP, the “shrunken log2 fold change” value is reported as -0.165.
With RRIRFRPPRLPRPRPRPPYKPRP the “shrunken log2 fold change” value was -0.279.
In the case of RRIRHRPPRLPRPRPRPGPIPRP, the “shrunken log2 fold change” value is reported as -0.133.
With RRIRYRPPRLPRPRPRPMWHPRP the “shrunken log2 fold change” value was -0.156.
For RRIRHRPPRLPRPRPRPHLEPRP, the “shrunken log2 fold change” value was -0.0228.
With RRIRVRPPRLPRPRPRPMFEPRP the “shrunken log2 fold change” value was 0.0774.
RRIRVRPPRLPRPRPRPDSAPRP was tested, and the “shrunken log2 fold change” value was 0.0792.
For RRIRHRPPRLPRPRPRPQSCPRP, the “shrunken log2 fold change” value was -0.0062.
RRIRNRPPRLPRPRPRPRICPRP was tested, and the “shrunken log2 fold change” value was 0.101.
With RRIRHRPPRLPRPRPRPRTMPRP the “shrunken log2 fold change” value was -0.0671.
RRIRQRPPRLPRPRPRPIWIPRP was tested, and the “shrunken log2 fold change” value was -0.206.
For RRIRPRPPRLPRPRPRPTWIPRP, the “shrunken log2 fold change” value was 0.184.
With RRIRRRPPRLPRPRPRPECIPRP the “shrunken log2 fold change” value was 0.282.
With RRIRWRPPRLPRPRPRPHWRPRP the “shrunken log2 fold change” value was 0.329.
For RRIRCRPPRLPRPRPRPTDPPRP, the “shrunken log2 fold change” value was 0.102.
With RRIRRRPPRLPRPRPRPLWVPRP the “shrunken log2 fold change” value was 0.382.
In the case of RRIRLRPPRLPRPRPRPSHDPRP, the “shrunken log2 fold change” value is reported as -0.385.
For RRIRMRPPRLPRPRPRPFSDPRP, the “shrunken log2 fold change” value was -0.0199.
With RRIRPRPPRLPRPRPRPSSNPRP the “shrunken log2 fold change” value was -0.388.
In the case of RRIRCRPPRLPRPRPRPMNCPRP, the “shrunken log2 fold change” value is reported as -0.0537.
With RRIRKRPPRLPRPRPRPEHTPRP the “shrunken log2 fold change” value was -0.0305.
In the case of RRIRTRPPRLPRPRPRPDMLPRP, the “shrunken log2 fold change” value is reported as 0.035.
In the case of RRIRYRPPRLPRPRPRPGNIPRP, the “shrunken log2 fold change” value is reported as -0.153.
With RRIRNRPPRLPRPRPRPNHQPRP the “shrunken log2 fold change” value was -0.241.
In the case of RRIRTRPPRLPRPRPRPSWYPRP, the “shrunken log2 fold change” value is reported as -1.12.
RRIRWRPPRLPRPRPRPQYAPRP was tested, and the “shrunken log2 fold change” value was -0.0905.
In the case of RRIRLRPPRLPRPRPRPRSMPRP, the “shrunken log2 fold change” value is reported as -0.326.
For RRIRTRPPRLPRPRPRPNRKPRP, the “shrunken log2 fold change” value was -0.104.
RRIRVRPPRLPRPRPRPARYPRP was tested, and the “shrunken log2 fold change” value was 0.0291.
RRIRERPPRLPRPRPRPRCTPRP was tested, and the “shrunken log2 fold change” value was -0.0287.
In the case of RRIRMRPPRLPRPRPRPSIVPRP, the “shrunken log2 fold change” value is reported as -0.106.
With RRIRHRPPRLPRPRPRPSPMPRP the “shrunken log2 fold change” value was -0.418.
